This data set can be described thus: label from the status in PepcDB records.
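Further: failed if final PepcDB status was selected cloned or expressed and not failed if soluble or beyond.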

For the sequence “MSDWQMAEAWTLEEAIANIQQTEDTGKRYYAAWWFGKFRVQDERAVNALLAALKDETDRSPDGGYPLRRNAAKALGKLGNLAAVQPLIESLESPDYYVRESAAQSLEMLGDRQAIPALQALLAGGVAAAVKAEGKPHLVQPYEAVIEALGTIGATAAIAEIEPFLDHEFAKIRYAALRALYQLTQEAHYAEQLMEALNGNQLQLRRSALLDLGAIGYVPAGQAIAKAYAENSLKLISLKGILESHLQRTAETLDADGLQLLELMDSLL”, the protein production result is reported as “failed”. With “MSEDKDMKNRNAMTIKRFVDVEEDGEHGGSGEFAELFQESIKQHRVGEVVTGKVVHISNEFVLVDIGYKSEGCIAIDEFLDEDGNLTVKVGDEVKALFERKENQKGYAVLSRRKAERLAVWDVIDEAGGEGGIIEGKITGKVKGGLTVDIGVQAFLPASQVDLRPGGNLDKYIGTTDRFKVLKLNKKRGNIVLSRRVLMEEERESSRKETLATLAEGQVREGVVKNITDYGAFVDIGGVDGLLHVTDMSWGRLGHPSEILKPGDKLNVKVLKYDQEKGKISLGLKQVTPDPWVSVEQKYNQGDRVKGKVVSLTDYGAFIALEDGVEGLVHVSEMSWTRRLRHPSEILTVGDEVETVVLGVDMGNRRISLGLKQVQVNPWTQLEEKYPVGTKLEGQIKSITDFGVFIGIEEGIDGLVHVSDISWTKRIKHPGEVFTKGQTVQAVVLNIDPENERLSLGIKQLLLDPWSEIPVKYRPGTRVHGKVTSVTDFGVFLEIEEGIEGLIHVSELSREKVASPKEFTNVGDELDAVVLSVDESEKKIALSIKSLQMAAEKAEIESYMQAQGEATSNLGELLKVGFRKNGDGNDLEHHHHHH” the entry was “failed”; with “MSEENKIGTYQFVAEPFHVDFNGRLTMGVLGNHLLNCAGFHASDRGFGIATLNEDNYTWVLSRLAIELDEMPYQYEKFSVQTWVENVYRLFTDRNFAVIDKDGKKIGYARSVWAMINLNTRKPADLLALHGGSIVDYICDEPCPIEKPSRIKVTSNQPVATLTAKYSDIDINGHVNSIRYIEHILDLFPIELYQTKRIRRFEMAYVAESYFGDELSFFCDEVSENEFHVEVKKNGSEVVCRSKVIFE”, “not failed”; with “MSEENRAVVSRMTEEDVRQLIKRKDDIEEQIKAYYDMLESQAGVGMDGPLVDVEGFPRADVDLYKVRTARHSISCLQNDHKAIMVEIEEALHKLHATARVTHEQDDTQMESSGQTVETPPPFALVDAVTHGSPAAQAGLHVGDQIMEFGSVNTQNFRNLRDIASVVQHSEGKSLRVGVFRNGQEVHLNLTPQQWSGRGLLGCNIVPLHR”, “failed”. With “MSEIEELVCIEASVTRKSTSNTVEIRESRRNKVTLGSSDSPAFPTPHLFLKNIVSFDEQSMYNLLYPRLQDPNLCSILSFKIAFEAKRVPGPLYISYDVTLTPQIFEEPDMETCGLCLLEEQHLFDMPNCAHVFHGDCIDKWLSTSNNCPLCGVEIMDDDE”, the protein production result is recorded as “failed”.

For “MSEIILVTGAAGQLGQRVIHHLIETYKVAPGNIVAATRSPEKLSELEKKGVVTRKADFDDAAGLEKAFAGVDRLLIISTDALDTPGKRLAQHKGAVAAAVKSGVKHIAYTSMPGPDNSLVTFAPDHLGSENAIKASGIAHTIIRDAWYHDNYLHGMPHNLQGGKWYSATGDGKISTISRDDCALAIAAALASGTSESATYTVTGTQSLNSRQIAAIVSDVAGKPLEVIDVTDEQLGQGMRGAGLPGFVADMLVSADANTRAGKFDIVTEDFTKLTGKQPQPLKDFFVEHKATLTA”, the protein production result was “failed”. With “MSEILRQPSVLLFLTLAVYALAIIVRTRTGNIFCNPVLVSTIVLIAYLKILGIDYAVYHNAAQFIDFRLKPAVVVLAVPLYQNRRKIFNQWLPVIVSQLAGSVTGIVTGMYFAKWLGAEREVVLPLASKSVTNPIAIEITRSIGGIPAITAATVIIAGLVGQIAGYKMLKNTVVMPSSVGMSLGTASHAMGIAASLERSRRMAAYAGMGLTFNGVLTALIAPLLIPVLGF” the entry was “failed”; with “MSEKDFVQVAKLGKTVGLKGYVKLHNLSDFSSQFKKDATFFIKNTKEMLKIKHYNANNSTVLFENYEDIEKAKELTNLILFQSIEKSRQTCKLKKDEFFYFDILECEVFEEDKRLGKVVDILETGASYLFEIQSDEKWVEKKYPKIFFIPYLDKFVKNIDIEKRQIFCTQDAFLILENSLEHHHHHH”, “not failed”. With “MSELILVRHGQATPFEKATDRLSALGEQQARAVGAALTAQGVRPTHVLHGSLVRQRRTAELAGEGQTGNEPGWPAPTLDPRLSEFDGDGLVTTLAPLLAQQDAEFGTLATTFREHRDSPERNRHFQRMLEALAAAWQAGTVTHPEVEGWADFRARVRAGLGDVLRLPAGTTAVLFTSGGVIGLAVALALDAPDASALKLNWRVKNGSLTRFTFGGGRLSLDSFNEEGHLTPELRSWR” the entry was “failed”; with “MSELPPREQPPRDQAISVAAISPERPDNHENDWTRRLVLFLRVMAVLSVAKGLYHWAQITGFVGGEDDAFEVQTMAWQTATIYFAVIELVAAVGLWLATPWGAVVWLTTVVSMAVIELMFPAIYGGSLLVVLGEALLLAAYLALAWMAARERPP”, “failed”.

On to “MSELRILRAVDYPRMPWKNGAGSTEEIARDGGDGLDGFGWRLSIADVGESGGFSGFAGYQRIISVLEGGGMRLRVDGAESAPLRARQAFAFSGDSEVHCTLLDGAIRDFNLIYAPRRHRARLQWLRVEGELDWHGTASTLLLFAQQDGVAISLQGQPRGQLAAHDCLCAEGLQGLQHWRLTAHEPAWVCAVELDSL”, for which the protein production entry is “not failed”. “MSELVINNNIVNDLLIKQFTNYVFMMIVTDIKGNIIYANKKYCQFNHINFESIKNKRYNLFYLVDENQDVFSNISDNKEVIRLEAKNPNKNKQEVWEDINIVPIFDKNNLISHYAFLSLDITD”: the protein production result was “failed”. With “MSEPKKHKDAAVDDRAVQPSRRNFLKFGASGIAAATLSTWIPSDGMLQAAPVAPVLPVVEDRDAPAAGEHRIQLKVNGQVHTLNVPANAVLLDVLRDRLQLTGTKKGCDHGQCGACTLLVNGVAINSCLSIAVQHQGDSITTIEGLAENGKLHPVQEAFWEHDAYQCGYCTSGQIMSAVAILKDPNLGSDDASVREAMSGNICRCGAYKNILSAVQSARSKMGAV” the entry was “failed”; with “MSEQNWTDTGRFDNKAAEWDANAIRAALADAVARAIIAHMPVGKPANALEFGCGTGLVTTRIAPHCLQLTAVDSSREMLRMLGEKIAASAIANVTPLHLDFSRPEEAAGLDRDYDFVYSSMTLHHIPDTASFLRELIGHMSPGGALAIADLDAEDGLFHNDATEKVHHGFDRTELQALLESAGFAGVSFMTAHIIEKKNREGNLKNYPVFLVTAVKPKA”, “failed”.

Regarding “MSESAKVWLVTGASSGFGRAIAEAAVAAGDTVIGTARRTEALDDLVAAYPDRAEAISLDVTDGERIDVVAADVLARYGRVDVLVNNAGRTQVGAFEETTERELRDLFELHVFGPARLTRALLPQMRERGSGSVVNISSFGGQLSFAGFSAYSATKAALEQLSEGLADEVAPFGIKVLIVEPGAFRTNLFGKGAAYFSEENPAYAEKVGPTRQLVQGSDGSQPGDPAKAAAAIRLALDAEKTPLRLALGGDAVDFLTGHLDSVRAELTEWEKVSRGTDFDTE”, the protein production result is given as “not failed”.

Take “MSESIVTKIISIVQERQNMDDGAPVKTRDIADAAGLSIYQVRLYLEQLHDVGVLEKVNAGKGVPGLWRLLLEHHHHHH”: the protein production result was “not failed”. As to “MSESVNKKITDGNYDKTLAVKCVNGTFVGKKTEGVIAYKGIPFVGQQPVGKLRWKAPVDVTPSNDVYEAYNYEKAPVQAPGDPAIENGMGEDCLYLNIWRADETVTEKKPVIVWIYGGGFEVGGTSDPQYDCHSLVKENPDVILVSLAYRVSFFGFMHLSHLSDGKDYQDAPNLGLLDQLMGLKWVHENIANFGGDPDNVTIWGESAGGASVTLLPLIKGSHQYFKRVIAQSGAPAQTRSEEQAIAITDHVMKELGCKTVADLLKVSAQEFADTWARLYGFYQVLGIRTFPERDGRCLPLNPWEAYANGAAKDITFLQGCNKDEMNTFLGSIGVDRWNAWANQRKAEKLIQLTDEEKALVESYCNDIQGESYEPTVRLFSQIMFQVPQIRLSEEQTKGGGKSYTYLFTPESSVPLIKCGHITELSALFNHPEITAFTGRAYDETFCKTMRKMWIQFAKTGNPSLTAEMSPDGKAKEWPLYDTEKKVMVLDEQNIHPAKESELKIVDWERTYFLTNYYMP”, the protein production entry was “failed”.

Regarding “MSFALGQRWISDTESDLGLGTVVALDARTVTLMFAASEENRVYARSDAPVTRVIFNVGDVVDSQQGWSLQVEQVVEDQGVYTYLGTRVDTEESGVALREIFLSNQIRFNKPQDKLFAGQIDRMDNFVLRY”, the protein production entry is on record as “not failed”.

As to “MSFDRPEIYSAPVLQGESPNDDDNTEIIKSFKNFILEFRLDSQFIYRDQLRNNILVKNYSLTVNMEHLIGYNEDIYKKLSDEPSDIIPLFETAITQVAKRISILSRAQSANNNDKDPENTSMDTDSLLLNSLPTFQLILNSNANQIPLRDLDSEHVSKIVRLSGIIISTSVLSSRATYLSIMCRNCRHTTSITINNFNSITGNTVSLPRSCLSTIESESSMANESNIGDESTKKNCGPDPYIIIHESSKFIDQQFLKLQEIPELVPVGEMPRNLTMTCDRYLTNKVIPGTRVTIVGIYSIYNSKNGAGSGRSGGGNGGSGVAIRTPYIKILGIQSDVETSSIWNSVTMFTEEEEEEFLQLSRNPKLYEILTNSIAPSIFGNEDIKKAIVCLLMGGSKKILPDGMRLRGDINVLLLGDPGTAKSQLLKFVEKVSPIAVYTSGKGSSAAGLTASVQRDPMTREFYLEGGAMVLADGGVVCIDEFDKMRDEDRVAIHEAMEQQTISIAKAGITTVLNSRTSVLAAANPIYGRYDDLKSPGDNIDFQTTILSRFDMIFIVKDDHNEERDISIANHVINIHTGNANAMQNQQEENGSEISIEKMKRYITYCRLKCAPRLSPQAAEKLSSNFVTIRKQLLINELESTERSSIPITIRQLEAIIRITESLAKLELSPIAQERHVDEAIRLFQASTMDAASQDPIGGLNQASGTSLSEIRRFEQELKRRLPIGWSTSYQTLRREFVDTHRFSQLALDKALYALEKHETIQLRHQGQNIYRSGV”, the protein production entry is listed as “failed”.

On to “MSFEAFTELYIRDVKTRLKENTWLTKEHIIRTKILPYFGKLRISEISTKEIITWQNELLAYRDEKKKPYSQTYLKTLHNQLSAIFNHAVRYYELRSNPAAKVGNMGSE”, for which the protein production result is “failed”. With “MSFFNKIILIGRLVRDPEERYTLSGTPVTTFTIAVDRVPRKNAPDDAQTTDFFRIVTFGRLAEFARTYLTKGRLVLVEGEMRMRRWETPTGEKRVSPEVVANVVRFMDRKPAETVSETEEELEIPEEDFSSDTFSEDEPPF” the entry was “not failed”.

As to “MSFGNEKGQDIIHRKEVEFFVKNLKDYFSNINKYVVILWDEEGIILEFKENGGNLLGYTPEQIEGKKWPDILTDGKDKEQTTEINKKLVNSKIVRYYINSIKDVNGTSKIFLWCNLKLENVQSDKKIFLSVGFNLDSIDNLKEKTDESKFELDTLNEKKENLEFKVTKDDLILKQKDDTIRDYKSKLEFLAFYDELTGLPNKNSLIRWLNLKVSQMDCIDTYLIFLEVRDLEKLNVTYGYDLVDELIIHISKRIKDIAGEGNKAFKIGFDRFAIICKSENISDFIERMLSQLLLPYNVNGNLIRVNFNIGAAQIENSNEAAANLMRRCDLALIKAKEEGLNEYVIFKPSIEIQTLKEGILERELRNGIELNEFIVFYQPFVKLENDKICGFEALLRWYYLKSVFVSPLEFIPVAEKYGLIIDLGNMVLKQSLKAGKILKKYYDDEFTISINISPKQFIDKRFVKNTIEILENEKLQDIRLRFEITEKVAIENIDYTIRIMNEFKKYNVTFALDDFGVEYSSLNYLRKLPIEAVKIDKSFVQDINDHDTYFIVETIVKLCKKLNLKTVIEGVETQRQYQIIKELGCDYAQGYFIAKPLPINELINLVGKYKILE”, the protein production entry was “failed”.

The values above are taken from a protein production outcome set (Wang et al. 2014).
